Data published in patent publication US7879859B2, “Diagnosis and treatment of type 2 diabetes and other disorders” (Merck Sharp & Dohme Corp., priority 2005, dated 2011).
Where “and” joins values, the source holds several entries; their conditions need not be identical. Equal entries are not always repeated. d = 2'-deoxy (DNA); r = 2'-OH (RNA)

B1: si-SST3: pool of three pairs of siRNA oligos against rat sst3 (SEQ ID NO: 9-14) (nucleic acid)
chain 1: CCUUUCGGCUCUCUCAUGUTT
chain 2: GGGUUUGCUGGGCAAUUCATT
chain 3: CUGACGAACUCUUCAUGCUTT
chain 4: ACAUGAGAGAGCCGAAAGGTT
chain 5: UGAAUUGCCCAGCAAACCCTT
chain 6: AGCAUGAAGAGUUCGUCAGTT
modifications: sugars from the 5' end r19 d2, backbone not given here

Experiments:
[1] = tested on: isolated mouse islets; experiment: Glucose-stimulated insulin secretion (GSIS) in isolated mouse islets; type: cell-based; settings: 10 nM Octreotide, FIG. 1
Experimental: Pancreatic islets of Langerhans were isolated from the pancreas of normal C57BL/6J mice (Jackson Laboratory, Maine) by collagenase digestion and discontinuous Ficoll gradient separation, a modification of the original method of Lacy and Kostianovsky (Lacy et al., Diabetes 16:35-39, 1967). The islets were cultured overnight in RPMI 1640 medium (11 mM glucose) before GSIS assay. To measure GSIS, islets were first preincubated for 30 minutes in the Krebs-Ringer bicarbonate (KRB) buffer with 2 mM glucose (in petri dishes). The KRB medium contains 143.5 mM Na^+, 5.8 mM K^+, 2.5 mM Ca^2+, 1.2 mM Mg^2+, 124.1 mM Cl^−, 1.2 mM PO4^3−, 1.2 mM […], 25 mM CO3^2−, 2 mg/ml bovine serum albumin (pH 7.4). The islets were then transferred to a 96-well plate (one islet/well) and incubated at 37° C. for 60 minutes in 200 μl of KRB buffer with 2 or 16 mM glucose, and other agents to be tested such as octreotide and a SST3 antagonist. (Zhou et al., J. Biol. Chem. 278:51316-51323, 2003.) Insulin was measured in aliquots of the incubation buffer by ELISA with a commercial kit (ALPCO Diagnostics, Windham, N.H.).

[2] = tested on: sst3 mRNA; experiment: sst3 knockdown by Taqman real-time PCR; type: cell-based, rat; settings: 48 hours after siRNA treatment; INS-1 832/13 cells
Experimental: The degree of gene knockdown by the siRNA oligos was quantified by Taqman real-time PCR also at 48 hours after electroporation. The method consistently obtained >70% knockdown of the target genes mRNA. We used PDE3b (phosphodiesterase 3B) and GCK (glucokinase) as two positive controls. As shown in Example 5, Table 6 (infra), compared to control-shocked INS-1 cells (using random sequence siRNA oligos), knocking down PDE3b increased GSIS by 1.5 to 3 fold, consistent with its role in hydrolyzing cAMP, a key positive mediator of GSIS.
The degree of sst3 knockdown was also examined 48 hours after siRNA treatment using Taqman real-time PCR. The rat sst3 specific probes were designed using Primer Express Software (Applied Biosystem) based on SEQ ID NO: 7 (Forward Primer: […] (SEQ ID NO: 15); Reverse Primer: […] (SEQ ID NO: 16); Probe: […] (SEQ ID NO: 17)). We observed about 55-75% reduction of sst3 mRNA in siRNA-treated cells.

[3] = tested on: INS-1 (832/13) cells; experiment: GSIS assay after siRNA mediated gene knockdown; type: cell-based, rat; settings: compared to random sequence siRNA, 48 hours after electroporation
Experimental: Three 21-mer siRNA oligos were designed against each candidate gene and used as a pool at the final concentration of 20 uM. The siRNA oligos were delivered to the cells by Nucleofector Device (Amaxa, Gaithersburg, Md.). The INS-1 (832/13) cells were trypsinized, centrifuged, and resuspended in 100 ul Nucleofector solution V (2.25×10^6 cells per reaction). Seven and a half microliters of pooled siRNA were then added to the cell suspension. The cells were electroporated with Amaxa Nucleofector Device program T21. After electroporation, the cells were transferred and split into 9 wells in 96-well plate with 200 ul of regular culture medium (RPMI 1640 with 10% FCS and 11 mM glucose).
GSIS assays were performed after 48 hours. Prior to the assay, cells were washed once with glucose-free Krebs-Ringer Bicarbonate (KRB) medium and cells were incubated with the KRB medium for another 2 hours. The medium were replaced with fresh KRB supplemented with 2, 8, and 16 mM glucose and the cells were incubated for another 2 hours. Supernatants were taken out at the end of incubation for insulin measurement by Ultrasensitive Rat Insulin ELISA kit (ALPCO, Salem, N.H.).
GSIS assays were performed 48 hours after electroporation. The ratios of insulin concentration measured between 8 mM and 2 mM (G8/G2) and 16 mM and 2 mM (G16/G2) glucose treatments are functional readouts for GSIS. […]

| Molecule | Effect on GSIS [1] | Reduction of sst3 mRNA [2] | Normalized fold of stimulation of GSIS, G8/G2 ([3]; insulin ratio 8 mM/2 mM glucose) | Normalized fold of stimulation of GSIS, G16/G2 ([3]; insulin ratio 16 mM/2 mM glucose) |
| --- | --- | --- | --- | --- |
| C[C@@H](O)[C@@H]1NC(=O)[C@H](CCCCN)NC(=O)[C@@H](Cc2c[nH]c3ccccc23)NC(=O)[C@H](Cc2ccccc2)NC(=O)[C@@H](NC(=O)[C@H](N)Cc2ccccc2)CSSC[C@@H](C(=O)N[C@H](CO)[C@@H](C)O)NC1=O [Octreotide] | significantly suppressed |  |  |  |
| B1 |  | 55-75% | 2.9 and 3 and 2.8 | 4.4 and 2.9 and 2.7 and 4.3 |
